Assays:
[1] = target: T1, A beta monomer prepared from synthetic A beta1-40 (TFA form), 0.1 mg/ml in PBS (UniProt P05067 672-711); test: dot blot: peptide spotted on nitrocellulose (0.1 micro g/dot), hybridoma culture supernatant, HRP anti-mouse IgG, ECL
T1 construct: domain: A beta1-40; also called A beta1-40 monomer; A beta40 monomer
Method: (§1) Dot blot analysis was carried out for hybridomas that gave positive result for primary screening. […] The membrane was blocked with Tris Buffer containing 5% low-fat milk and 0.05% Tween-20, and reacted with hybridoma culture supernatants and detected with chemiluminescence kit (ECL) after reacting with HRP-conjugated anti-mouse IgG antibody.

[2] = target: T2, A beta oligomer prepared from synthetic A beta1-40 (HCl form), 0.1 mg/ml in PBS, incubated at 37 degrees C … (UniProt P05067 672-711); test: as above
T2 construct: domain: A beta1-40; non-fibrous assembly of A beta1-40; also called A beta1-40 oligomer; A beta40 oligomer
Method: as §1

synthesized A beta1-42 [3] = target: T3, synthesized A beta1-42 (UniProt P05067 672-713); test: as above
T3 construct: domain: A beta1-42; spotted in the dot blot as the second of the two types of oligomers; also called A beta42 oligomer
Method: as §1

[4] = target: T2, A beta oligomer prepared from synthetic …; test: competitive ELISA: antibody pre-incubated with soluble A beta1-40 oligomer (inhibitor, varied), then binding to immobilised A beta1-40 oligomer read as OD450
[5] = target: T1, A beta monomer prepared from synthetic …; test: competitive ELISA: antibody pre-incubated with soluble A beta1-40 monomer (inhibitor, varied), then binding to immobilised A beta1-40 oligomer read as OD450
synthesized A beta1-42 [6] = target: T3, synthesized A beta1-42; test: dot blot, synthesized A beta1-42 spotted, hybridoma supernatant
Method: as §1

Row | binding result [1] | binding result [2] | binding result (synthesized A beta1-42 [3]) | binding result [4] | binding result [5] | binding result (synthesized A beta1-42 [6]) | Binder
1 | binds | binds | binds | – | – | – | AL-221 antibody (antibody, IgG2b, V domains shown) VH: QVTLKESGPGILKPSQTLSLTCSFSGFSLSTSGMGVGWIRQPSGKGLEWLAHIWWDDDKYYNPSLKSQLTISKDTSRNQVFLKITSVDTADTATYYCARRSLSRDYFDYWGQGTTLTVSS VL: DVLMTQTPLSLPVSLGDQASISCRSSQSIVHSNGNTYLEWYLQKPGQSPKLLIYKVSNRFSGVPDRFSGSGSGTDFTLKISRVEAEDLGVYYCFQGSHVPLTFGAGTKLELK
2 | – | – | binds | binds | binds | – | AL-231 antibody (antibody, IgG2a, V domains shown) VH: QVTLKESGPGILKPSQTLSLTCSFSGFSLSTSGMGVGWIRQPSGKGLEWLAHIWWDDDKYYNPSLKSQLTISKDTSRNQVFLKITSVDTADTATYYCARRALNWDVFDYWGQGTTLTVSS VL: DVLMTQTPLSLPVSLGDQASISCRSSQSIVHSNGNTYLEWYLQKPGQSPKLLIYKVSNRFSGVPDRFSGSGSGTDFTLKISRVEAEDLGVYYCFQGSHVPLTFGAGTKLELK
3 | – | – | – | – | – | binds | AL-205 antibody (antibody, IgG2a, V domains shown) VH: EVKLEESGGGLVQPGGSMKLSCVASGFTFSNYWMNWVRQSPEKGLEWVAEIRLKSNNYATHYAESVKGRFTISRDDSKSSVYLQMNNLRAEDTGIYYCTRGTRVWLRREAWFAYWGQGTLVTVSA VL: not shown
4 | – | – | binds | binds | binds | – | AL-233 antibody (antibody, IgG2b, V domains shown) VH: DVQLQESGPDLVKPSQSLSLTCTVTGYSITSGYSWHWIRQFPGNKLEWMGYIHYSGSTNYNPSLKSRISITRDTSKNQFFLQLNSVTTEDTATYYCARRGYDGYYSWFAYWGQGTLVTVSA VL: SQAVVTQESALTTSPGETVTLTCRSSTGAVTTSNYANWVQEKPDHLFTGLIGGTNNRAPGVPARFSGSLIGDKAALTITGAQTEDEAIYFCALWYSNHWVFGGGTKLTVLG
5 | – | – | – | – | – | binds | AL-204 antibody (antibody, V domains shown) VH: EVQLVESGGGLVKPGGSLKLSCAASGFTFSDYYMYWVRQTPEKRLEWVATISDGGSYTYYPDSVKGRFTISRDNAKNNLYLQMSSLKSEDTAMYYCARAKYYRYDGGGAYAMDYWGQGTSVTVSS VL: NIMMTQSPSSLAVSAGEKVTMSCKSSQSVLYSSNQKNYLAWYQQKPGQSPKLLIYWASTRESGVPDRFTGSGSGTDFTLTISSVQAEDLAVYYCHQYLSSYTFGGGTKLEIK

— patent US20120082667A1 (IMMUNAS PHARMA, published 2012)
